The values below come from the DeepSol protein solubility set.

The data set is described as follows: soluble on expression in E. coli; label from the status in PepcDB or PDB records.
Turning to “MAHHHHHHMMKLNRNVLFKKGEKITYSVKSVIFIINVIRTRGEEDDDNNNISGKSILGTSHNNISNIDLSSIPNLDSNIHASFSSDTKEWSPNNLTSKKKKKKKEIRPKDIMSNSDSSNTSSINKQNNNQIKSVLLKENKGVKITGPCNVNLSIFLVPHIYIDVETKYNNIELKYELDEFSDSIKFKDTTTELRTSDDTLMNTNFNVGVSRDTLDKDRLYNICAENKTFKFVVYIKDNILTLKWKVYETGVTNNKVDIRQYKMKELTRPITTIQIHSVSENKDTHLLESKNYVIKTDIPETCDVMATNCFLSGNINIEKCLECTLLVQNNDTSSECFTYVSNDVRENFNQIKAEAEDDENFRNYHLTDTINNILKRIYKINKNEGKKELITLEELDNFLKESITDYCKILREIDTNGTLVNHELGNNVDVFNNLIRLLKLHKNESISTLHNKLRNSAICMKYPDKWIEKKTGLILPNVVNNNIIYNNKYEKLNEEKKRKIYDNKDDSKISDIINIKKYIFTNNTLKYFNNDKQFCNSSFCNRLKDENNCISKIQIEDQGNCAISWIFASKYYLETLKCMKGYEPHAISALYIANCSKRKHKNRCNVGSNPLEFLQIIEENQFLPMDTNYLYSYTKVGNDCPDEEKNWVNLLKHTRMLNYNNKHRSTLSTKAYRAYESEHFKDKMDTFIKLIKDEIMNNGSVIAYVKAENVLGYELNGKNVQNLCGDKTPDHAVNIVGYGNYINDEDEKKSYWIVRNSWGKYWGDEGYFKVDMYGPSTCEDNFIHTVVVFNINMPKSKKSPVKITFPLYNYYLKYSPDFYHNLYYKNFNSKKSMKLVNASDEHKNIYSQEDKVNHKKGSKILNSEVTTSLLSQEISQRRGEDDDIDTLIGDSPDINEQEKNIKDEFNKSSITHNSVSSSNITKSNKNTNKVKIYHIIKHVKNTKIKIGFVKYDNYNTIGTNHTCSRSYSEDQEKHEGCIKFCELHWNECKDKTSPGYCLTKLKGSNECFFCYV”, the “soluble on expression in E. coli” value was “not soluble”.

Consider “MKKLEVKDLKENFFEAIGKEWMLVTAGTKEKFNTMTASWGGIGWLWNKPVAFVFVRPERYTYEFIEKSDYLTLSFLGEANKKIHAVCGSKSGRDTDKVKATGLKPVFTEQGNVLFEQARLSLEGRKLYADNIKPECFLDKESLEKWYDDAHGGFHKMYIVEIENIWEGD”, for which the “soluble on expression in E. coli” value is “not soluble”.

For “MFFKQFYEDNFSQASYLIGCQRTGEAMIIDPIRDLTKYLKVADKEGFTITKAAETHIHADFASGIRDVANKLNASIYVSDEGKDEFNYKNMPKQTHFVKHQDIIYLGKIKLEVLHTPGHPPESISFLLTDEGGGSSIPMGLFSGDFIFVGDVGRPDLLEKAVNVEGSTKIGAKQMYQSIQFAATLPDYIQIWPGHGAGSPCGKALGSLPTTTLGYEKINNWAFNVKDETSFIETLTLNQPAPPHHFSQMKKINQFGMQMYQPYNVYPSSSNTQTAFDLRSKEAFHGGHMHGTINIPFNKTFINQIGWYLDYDLEHHHHHH”, the “soluble on expression in E. coli” value is “soluble”.

As for “MGVQTHVLELTSSVSAEKIFQGFVIDVDTVLPKAAPGAYKSVEIKGDGGPGTLKIITLPDGGPITTMTLRIDGVNKEALTFDYSVIDGDILLGFIESIENHVVLVPTADGGSICKTTAIFHTKGDAVVPEENIKYANEQNTALFKALEAYLIAN”, the “soluble on expression in E. coli” value is recorded as “soluble”.

On to “MKSVTSAQRPYQEVGAMIHDLIIKTPYNPGERLPPEREIAEMLDVTRTVVREALIMLEIKGLVEVRRGAGIYVLDSSGSHNTDSPDANVCNDAGPFELLQARQLLESNIAEFAALQATREDIVKMRQALQLEERELASSAPGSSESGDMQFHLAIAEATHNSMLVELFRQSWQWRENNPMWIQLHSHLDDSLYRKEWLGDHKQILAALIKKDARAAKLAMWQHLENVKQRLLEFSNVDDIYFDGYLFDSWPLDKVDA”, for which the “soluble on expression in E. coli” value is “not soluble”.

Regarding “MAGQLPRRIIKETQRLLADPVPGISANPDESNARYFHVMIAGPDDSPFAGGVFKLELFLPEEYPMAAPKVRFMTKIYHPNIDKLGRICLDILKDKWSPALQIRTVLLSIQALLSAPNPEDPLATDVAEQWKTNEAEAIKTAKQWTMNYAQA”, the “soluble on expression in E. coli” value was “not soluble”.

With “MSFNTIIDWNSCTAEQQRQLLMRPAISASESITRTVNDILDNVKARGDEALREYSAKFDKTTVTALKVSAEEIAAASERLSDELKQAMAVAVKNIETFHTAQKLPPVDVETQPGVRCQQVTRPVASVGLYIPGGSAPLFSTVLMLATPASIAGCKKVVLCSPPPIADEILYAAQLCGVQDVFNVGGAQAIAALAFGTESVPKVDKIFGPGNAFVTEAKRQVSQRLDGAAIDMPAGPSEVLVIADSGATPDFVASDLLSQAEHGPDSQVILLTPAADMARRVAEAVERQLAELPRAETARQALNASRLIVTKDLAQCVEISNQYGPEHLIIQTRNARELVDSITSAGSVFLGDWSPESAGDYASGTNHVLPTYGYTATCSSLGLADFQKRMTVQELSKEGFSALASTIETLAAAERLTAHKNAVTLRVNALKEQA”, the “soluble on expression in E. coli” value is reported as “soluble”.

For the sequence “MSLGNSFRQGANAYFDYVNTQGGIYGRALELLTYDDKYEPKLTESNVRHLIDKEGVFALMGTIGTPTAMAAIPVALEEQIPFLMPLSGARFLREPFNRLIFNLRPSYFEEIEAISSYLTEERGFKRIAIFYQNDSFGIEGLEGLTQSLDKRGLKIVAEGIYPRNTLSVSDAVYAIHPKSPEAIVMVGTYEASALFIQRYKELNPASPPLFVNISFVAATALAEALQGNMRQVLVSNVTPSPWDISNPLVREYHRLYVESMGHPPCFLSFEGFLSAKIIVEALHKTGPILSHKRFIKAMENLSPDFLSDLKLRFSATNHQAFEQVFITGYENGRFVTLKSYEGHHHHHH”, the “soluble on expression in E. coli” value is on record as “not soluble”.

Consider “MIPIEIDSGSGFCFGVVNAIRHAEKQLEKSSDKLYCLGDIVHNTLEVERLGKKGLETIDYDAFSRLRGAKVLLRAHGEPPEIYRMAGENGVTIIDATCPVVLRLQNKIKSRYEATRSLGAQVVIYGKRGHAEVNGLVGQTEGTAIVIESEEELDKIDYTRPVILFSQTTKSLEGFGQIIDSISTRMQPGVTFEHHDTICRQVANRIPHIGAFATAHELVFFVAGEKSSNGKVLFGHCLAANPRSIFISSPEVIVPDMLVPLPASIGICGATSTPRWQMEEVASHIKALLLEHHHHHH”, for which the “soluble on expression in E. coli” value is “soluble”.

Turning to “MGSDKIHHHHHHMTNAFKGIPEELLKPHASPCVSIFMPTSRTFPDNTQDPVRFKNLVSRAEADGIAFSTKREMAPLIERLRLLQDDASFWNHTLDGLAVFISPDYFRIFRLQQSVLEQAHVTDAFYIRPLIRIYQIVERFQVLALTRSEVKLYEGTRDHLDEIELAPEVPKTMTDALGTEITPPHMTIASYGGTGTAMRHGHSSRKDEEALDNERFFRAVDQGINEYHSSSSGLPLVLVALPEHQGLFRSISRNQRLVAEGIEIDPAALGLEAMRQKAWQVMEPYRERKIDQMIARFREAEGGKLGSDNPYAIAIAAVAGNVSHLLLDGQKFWPGQIDPVSGDILLDEASQASGRDVFEELGAAVLARGGEVLVLPSERMPSASGVAAIFRHD”, the “soluble on expression in E. coli” value is listed as “not soluble”.

For “ALSRYLLTESPAVCVLSGERGVGTTTLLNRILNKVKNATPIYINCPYDGYSALLPELAKQLGLDEESSERDILQYLRNSDTCYLLAFDSAQRLVKPKVNGLADLMKLTNLLRRARKSHRVVLAIEKSCWRFIDRARGERLLFDLVTFMP”, the “soluble on expression in E. coli” value was “not soluble”.

Take “GSAAPPAKEIPEVLVDPRSRRRYVRGRFLGKGGFAKCFEISDADTKEVFAGKIVPKSLLLKPHQREKMSMEISIHRSLAHQHVVGFHGFFEDNDFVFVVLELCRRRSLLELHKRRKALTEPEARYYLRQIVLGCQYLHRNRVIHRDLKLGNLFLNEDLEVKIGDFGLATKVEYDGERKKTLCGTPNYIAPEVLSKKGHSFEVDVWSIGCIMYTLLVGKPPFETSCLKETYLRIKKNEYSIPKHINPVAASLIQKMLQTDPTARPTINELLNDEFFTSGYIPARLPITCLTIPPRFSIAPSSLDPSNRKPLTVLNK”: the “soluble on expression in E. coli” value is on record as “soluble”.

With “MSLVKTRILIISDTHGSKPKPKSDNSPSTEDELNQEDVTKVITGWRDPLPEADVVIHCGDLTKRTTIPEFEQTFSVLRSIKAPLKLAIAGNHDTALDEEHWVNKYGGSKETIDKVKKIVREAETDGVKYLPEGVHEFTLANGALLKVYASPWTPAYGGWAFQYKNGHDFNIPPGMDVAVTHGPPRGILDFAGRAGTHAGCPQLLAAVARAKPKIHCFGHIHEAWGMHHVTWDGDEIDLARSQYRGLKGLRPNRVTQGKETARMTREKLIEMSKQRAVRLDLTQGINRSIAGKQTLFVNAAIMSIRYRPVQLPWIIDVDLKAREGHHHHHH”, the “soluble on expression in E. coli” value is “soluble”.

For “MAIRSSVLALCVATLLTGCQNLNTNTLMQSGAQAFQAATLSDAQVKALSDQSCEQMDKEAKIAPADSKYTQRLNKIADALGHDINGTPANYKVYLEKDVNAWAMANGCIRVYSGLMDMMNDNEVEGVLGHEMGHVALGHTRKAMQVAYAATAARTAIASAGGVAASLSQSQLADLGEKLVNSQFSQSQESQADDYSFDLLKKRGINREGLASSFEKLAKLDASHESSMFDSHPSSEGRAKHIRERITAEKLEHHHHHH”, the “soluble on expression in E. coli” value is “soluble”.

For the sequence “MTAFAAASPRAAVRTGFDGLAISVATRAMMKNLDQNFDAILITGPTASGKSALALRLARERNGVVINADSMQVYDTLRVLTARPSDHEMEGVPHRLYGHVPAGSAYSTGEWLRDISGLLSDLRGEGRFPVIVGGTGLYFKALTGGLSDMPAIPDDLREGLRARLIEEGAAKLHAELVSRDPSMAQMLQPGDGQRIVRALEVLEATGKSIRDFQRASGPMIIDPERAQKFIVLPERPVLHDRINRRFEAMMDSGAVEEVQALLALNLAPDATAMKAIGVAQIADMLTGRMGAAEVIEKSAAATRQYAKRQMTWFRNQMGDDWTRIQPAAALEHHHHHH”, the “soluble on expression in E. coli” value is “not soluble”.

“MGSDKIHHHHHHMHFYRSLGPIRAITFDLDDTLYDNADVIRRTGQESIRFLQEYHPALRDFQADDFQNLRQTLLEREPDIYHDVTEWRRRAVELAMLDRGLSAAESKDGAKAAMENFAHWRSQIAITEETHQTLAALAEKVPLAAITNGNAEPHRFGLERYFSFILRAGPHGRAKPFDDMYHLAAEKLNLPLHEILHVGDDLTTDVAGSIRCGMQACWINLREGSLTQIGDARLLPHIEISRLASLSALL”: the “soluble on expression in E. coli” value was “not soluble”.

As for “MTPPIISPESFEALRRMRAAEPTMVAERFKQRRKRELLGEDGKLFIVAADHPARGALAVGDNETAMANRYELLERMAIALSRPGVDGVLGTPDIIDDLAALGLLDDKIVVGSMNRGGLRGASFEMDDRYTGYNVSSMVDRGVDFAKTLVRINLSDAGTAPTLEATAHAVNEAAAAQLPIMLEPFMSNWVNGKVVNDLSTDAVIQSVAIAAGLGNDSSYTWMKLPVVEEMERVMESTTMPTLLLGGEGGNDPDATFASWEHALTLPGVRGLTVGRTLLYPQDGDVAAAVDTAARLVHTDIQQFTSQSILEHHHHHH”, the “soluble on expression in E. coli” value is on record as “soluble”.

Take “MGSSHHHHHHGGTGENLYFQGGSGSSSSSSLPAAASLPATHATPPGALSSSVVSSSAPMCTHLPLPPPPPQPQEQQANKRSLRNDTHAGQMLREQQQMMEQLMSTGLVQAADLLEFGFSAAELRAAGLHLPPPHHRAGEQTKGGLEAAQAERMADAHGEDSRRRGVPRKRAWCDDAAQARPQKNERVAPSPVVSGAAATTLSAAETTREPQTVAKSVATPALLSEETRARSLHAAKLVEQTQSLRRHRGDQDCARWLCYDDTDDEEVSSTASTGTSSGEATAALASMARAAETLPKARCNTALAFSGLDVAVVREIAQRLQDESGHDASVESRRTREYVESRENGNTPYM”: the “soluble on expression in E. coli” value was “not soluble”.

“MGSDKIHHHHHHMFRTFTEKRSEWKEQISEEIIPLIHRGMVNRKQWLLVNLKGRLWSGSLRDQFMFENIEWLRNYYKGEKLIVWAHNYHIRKNRSLLLELLRIKTVDHLLAKKYADRVFSVGFYAGSGTCLTPYKDLHEITMINQYHLELLLKELNGHTFFLPTNIGAKRNAWNKQAWWLLETRLLGMAPLVLKPIKAYDAIFFIKCVKPPQELGG”: the “soluble on expression in E. coli” value is given as “not soluble”.
